Results: the DeepSol protein solubility set

Assay: soluble on expression in E. coli; label from the status in PepcDB or PDB records

| Sequence | soluble on expression in E. coli |
| --- | --- |
| MGSSHHHHHHSSGLVPRGSHMALSRGLPRELAEAVAGGRVLVVGAGGIGCELLKNLVLTGFSHIDLIDLDTIDVSNLNRQFLFQKKHVGRSKAQVAKESVLQFYPKANIVAYHDSIMNPDYNVEFFRQFILVMNALDNRAARNHVNRMCLAADVPLIESGTAGYLGQVTTIKKGVTECYECHPKPTQRTFPGCTIRNTPSEPIHCIVWAKYLFNQLFGEEDADQEVSPDRADPEAAWEPTEAEARARACNEDGDIKRISTKEWAKSTGYDPVKLFTKLFKDDIRYLLTMDKLWRKRKPPVPLDWAEVQSQGEETNASDQQNEPQLGLKDQQVLDVKSYARLFSKSIETLRVHLAEKGDGAELIWDKDDPSAMDFVTSAANLRMHIFSMNMKSRFDIKSMAGNIIPAIATTNAVIAGLIVLEGLKILSGKIDQCRTIFLNKQPNPRKKLLVPCALDPPNPNCYVCASKPEVTVRLNVHKVTVLTLQDKIVKEKFAMVAPDVQIEDGKGTILISSEEGETEANNHKKLSEFGIRNGSRLQADDFLQDYTLLINILHSEDLGKDVEFEVVGDAPEKVGPKQAEDAAKSITNGSDDGAQPSTSTAQEQDDVLIVDSDEEDSSNNADVSEEERSRKRKLDEKENLSAKRSRIEQKEELDDVIALD | soluble |
| MKSYLVGGAVRDALLGLPVKDRDWVVVGATPQQMLDAGYQQVGRDFPVFLHPQSREEYALARTERKSGAGYTGFTCYAAPDVTLEADLLRRDLTVNALAQDADGAIIDPYGGQNDLRKRLLRHVSPAFSEDPLRVLRVARFAARYAHLGFRIAEETQALMAAIVEAGELAHLTPERVWKETESALTTRNPQVFFQTLRDCQALKVLFPEIDALYGVPAPAKWHPEIDTGLHTLMTVTMAAMLSPDVDVRFATLCHDLGKGLTPKALWPRHHGHGPAGVKLVEQLCARLRVPNDIRDLAKLVAEYHDLIHTLPILQPKTLVKLFDSIDAWRKPQRVQQIALTSEADVRGRTGFEASDYPQGRLLLEAWEVAQSVSTKEVVAAGFKGAEIREELTRRRIAAVAQWKEQRCPQPQG | not soluble |
| MTNIRVAIVGYGNLGRSVEKLIAKQPDMDLVGIFSRRATLDTKTPVFDVADVDKHADDVDVLFLCMGSATDIPEQAPKFAQFACTVDTYDNHRDIPRHRQVMNEAATAAGNVALVSTGWDPGMFSINRVYAAAVLAEHQQHTFWGPGLSQGHSDALRRIPGVQKAVQYTLPSEDALEKARRGEAGDLTGKQTHKRQCFVVADAADHERIENDIRTMPDYFVGYEVEVNFIDEATFDSEHTGMPHGGHVITTGDTGGFNHTVEYILKLDRNPDFTASSQIAFGRAAHRMKQQGQSGAFTVLEVAPYLLSPENLDDLIARDV | soluble |
| MGSDKIHHHHHHMKRILFISPTTSMDNGAEKSIYYLMKHLIQLGHTVINVTHAIGGEPQDKHEQLYKMIGVKNYYLPTVKWWWPDAPGGEILNREEATSYYRQNVQDIAEIIDQNEIDLVISNTVNVFQGAIAASCQKVPHFWLIHEFPKNEFAYYADKIDFIEEYSSELFSVTGELNNFLTPLFNKKVHSFISYTEQETKVLKKGNQVRIVSVGRLTEGKNQLELIKAYKTLNRLDIELVFIGGWDSKYKAICDEYIHENKLQKNVKFLGNLDNPWEEVTDRDICVFPSSMETFGLVYVEAILRGLPVILSDNLGHLTAFEIFSAGQIYKLGDIEELVTKLEQVIESFRNFSDRARLDVERLRTLYTPEVAYKEILNSINHLEYTGHQNTNLSHIKELLTLNMHPTRLERYARLISNMATKIRHKLRL | not soluble |
| MNISYIPEHIEQLTIMNVPEYYKINDNHAFIVRSKAETDFWLKTHYGFEVMNGHVFYNEMMTDFQAEVQLRMNPNSKFDQAGLFVMISENCWLKTSLEYIPEGPSHLGAVVTNNGYSDWSTQDYPTEAAKQQLRFRIIRKRGDYTIYVKKRHQWEQIRIAHLMEDIGNEPIKIGFYTCSPSKNKGFETEFLHFTIEELLEHHHHHH | soluble |
| MSLQAHCEEFRVCAMCRVLRVNRSGYYAWLCSPNSERAKEDDRLLGLIKHHWLASGSVYGHRKITTDLRDLGERCSRHRVHRLMRTEGLRAQVGYGRKPRFHGGMQCKAAANLLDRQFDVTEPDTAWASDFTFIRTHEGWMYLAVVIDLFSRQVVGWAMRDRADTELVVQAVLSAVWRRKPNTGCLVHSDQGSVYTSDDWRSFLASHGLVCSMSRRGNCHDNAPVESFFGLLKRERIRRRTYPTKDAARAEVFDYIEMFYNPNRRHGSTGDLSPVEFERRYAQRGSEGHHHHHH | not soluble |
| GSHHPFTAQIVAVTASGYDSEKGHVPANIADGDVKTRWAASGESWVQLELDKEQSIENILIVPFKPTERKLKFSIFYSNDGKNWQPLAEGLETSSADKNGEKLTFTPVTAKYIKLDTFGTDVNNWSAINEIAINSAAALPSRAIK | soluble |
| MRWTKEELDRYHRQMILPQVGPEGQERLKRASVVVVGAGGLGVPVLQYLVAARVGRVGVVEMDRVEVSDLHRQVLYTTEDVGEPKALVAQKRLQALNPLVRVEAYPVRLTSENALEILRPYDLVVDASDNFPTRYLVNDAAVLLGKPLVFGAIYQFDGQGTVFHHPTLHGEMGPCYRCLFPKPPPPGAVPSCAEAGVFGVLPAVVGSLMAAEALKVLLGIGKPLAGHLLLYDALEAGFRKLTVRRNPRCPVCGDEPTQRELVDYEAFCGLG | soluble |
| MSLQSADESTFDRIRRTKKLRIGAVAGGAPYYNKDLATGQWKGFYIDISKALADELECQLEITETTWGNSVLDLQANKIDIFFGLNPTPKRALVVDFSVPVFSNAFTMLTRKDFAPKTWAELNDPNVKIAVDVGSSHDQVVSRLCPKAQIVRLKTADEATMALVSGRVDAQCIILMLALTVRKKNPNVGQLLVPTPVFSTTSNAGFRRENDKTWRDYVNTWIEYNKGLGFIRSAIVTNMELVGVTEADMPAGIQEGHHHHHH | soluble |
| MKSVVSSRETRSESNKSRRTFASTEWNKIIRETLYLETIYIPLDATSHSPDIIFQLQSPVEPKVLTVGVACKGRWKSEGIGWSDIIDEAKKFLDPVYDQVLSSAMDYHHCMLIIVSTKLSLNVSNELGNQSRCYSSGMFIRGDSFKVPDNCELVILCERDVQMLIDEEILSGLERAFHVSRSPTFWDFRLDLLVNLQ | not soluble |
| MGSDKIHHHHHHMLDDHTQLEFPASGMTELPLIWQPQVIRCKAAGPGGRPLLVLLDTGTDPSAIDLTLARRLDLRLGDFALGSDATCDTVPFTETVLPWLRLGEVMLRNLYLMAVDLRQMPFPVDLVLGYNVLHRLNLTIDYAGQTVRLCHPDLAPPPPGAEGASVPLRFFEHFPALPAQIIAPSGATHDVILTIDTGSNGALTVSRDLAASLHLDLHTVQAATGHGFAAATPVSRGFTVDLQLGPFRLPAVEVDVPATSHGDLGRQGRANVGNRLLSRFRRLTLDYRREVCILDR | not soluble |
| STLYEKLGGTTAVDLAVDKFYERVLQDDRIKHFFADVDMAKQRAHQKAFLTYAFGGTDKYDGRYMREAHKELVENHGLNGEHFDAVAEDLLATLKEMGVPEDLIAEVAAVAGAPAHKRDVLNQ | soluble |
| MVNKVLVANRGEIAVRIIRACKELGIPTVAIYNEVESTARHVKLADEAYMIGTDPLDTYLNKQRIINLALEVGADAIHPGYGFLAENAEFAKMCEEAGITFIGPHWKVIELMGDKARSKEVMKKAGVPVVPGSDGVLKSLEEAKALAREIGYPVLLKATAGGGGRGIRICRNEEELVKNYEQASREAEKAFGRGDLLLEKFIENPKHIEYQVLGDKHGNVIHLGERDCSIQRRNQKLVEIAPSLILTPEKREYYGNIVTKAAKEIGYYNAGTMEFIADQEGNLYFIEMNTRIQVEHPVSEMVTGIDIVKWQIKIAAGEPLTIKQEDVKFNGYAIECRINAEDPKKNFAPSTRVIERYYVPGGFGIRVEHAAARGFEVTPYYDSMIAKLITWAPTWDEAVERMRAALETYEITGVKTTIPLLINIMKEKDFKAGKFTTKYLEEHPEVFEYEE | soluble |
| MSLIIKKLKQSHSVKILCEVFNVHRSSYHYWLKRPALINAETIKLRSLISEAHAASNGSAGARTIADIVTNQGVKLSRYRATKLMRTLGLVSCQEPKHRYRKASQEHIDVPNHLSRQFAVTAPNEVWAGDVTYIWTGNRWMYLAVVIDLFARKVIGWSMSLSPDSRLTGKALSMAYESRGKPKGVMFHSDQGSHYTSRKYRQLLWRFQIKQSLSRRGNCWDNAPIERFFRSLKTEWVPTVGYRSFAEAQQEITRYIIGYYCQLRPHQYNGGLTPNESERLYWENSKTVANFSEGHHHHHH | not soluble |
